# Source: US20220177587A1, “METHODS AND USES OF VARIANT CD80 FUSION PROTEINS AND RELATED CONSTRUCTS” (Alpine Immune Sciences, Inc., priority 2018, published 2022)
# B1: E35D/M47V/V68M/L85M (protein, UniProt P33681 35-288, looked up, variant E35D M47V V68M L85M)
# T-lymphocyte activation …: VIHVTKEVKEVATLSCGHNVSVEELAQTRIYWQKDKKMVLTMMSGDVNIWPEYKNRTIFDITNNLSIMILALRPSDEGTYECVVMKYEKDAFKREHLAEVTLSVKADFPTPSISDFEIPTSNIRRIICSTSGGFPEPHLSWLENGEELNAINTTVSQDPETELYAVSSKLDFNMTTNHSFMCLIKYGHLRVNQTFNWNTTKQEHFPDNLLPSWAITLISVNGIFVICCLTYCFAPRCRERRRNERLRRESVRPV
# B2: A26P/E35D/M47I/V68M/A71G/D90G (protein, UniProt P33681 35-288, looked up, variant A26P E35D M47I V68M A71G D90G)
# T-lymphocyte activation …: VIHVTKEVKEVATLSCGHNVSVEELPQTRIYWQKDKKMVLTMMSGDINIWPEYKNRTIFDITNNLSIMILGLRPSDEGTYECVVLKYEKGAFKREHLAEVTLSVKADFPTPSISDFEIPTSNIRRIICSTSGGFPEPHLSWLENGEELNAINTTVSQDPETELYAVSSKLDFNMTTNHSFMCLIKYGHLRVNQTFNWNTTKQEHFPDNLLPSWAITLISVNGIFVICCLTYCFAPRCRERRRNERLRRESVRPV
# B3: H18F/A26P/E35D/M47I/V68M/A71G/D90G (protein, UniProt P33681 35-288, looked up, variant H18F A26P E35D M47I V68M A71G D90G)
# T-lymphocyte activation …: VIHVTKEVKEVATLSCGFNVSVEELPQTRIYWQKDKKMVLTMMSGDINIWPEYKNRTIFDITNNLSIMILGLRPSDEGTYECVVLKYEKGAFKREHLAEVTLSVKADFPTPSISDFEIPTSNIRRIICSTSGGFPEPHLSWLENGEELNAINTTVSQDPETELYAVSSKLDFNMTTNHSFMCLIKYGHLRVNQTFNWNTTKQEHFPDNLLPSWAITLISVNGIFVICCLTYCFAPRCRERRRNERLRRESVRPV
# B4: H18Y/E35D/M47L/V68M/E95V/L97Q (protein, UniProt P33681 35-288, looked up, variant H18Y E35D M47L V68M E95V L97Q)
# T-lymphocyte activation …: VIHVTKEVKEVATLSCGYNVSVEELAQTRIYWQKDKKMVLTMMSGDLNIWPEYKNRTIFDITNNLSIMILALRPSDEGTYECVVLKYEKDAFKRVHQAEVTLSVKADFPTPSISDFEIPTSNIRRIICSTSGGFPEPHLSWLENGEELNAINTTVSQDPETELYAVSSKLDFNMTTNHSFMCLIKYGHLRVNQTFNWNTTKQEHFPDNLLPSWAITLISVNGIFVICCLTYCFAPRCRERRRNERLRRESVRPV
# B5: R29C/E35D/M47L/V68M/A71G/L85M (protein, UniProt P33681 35-288, looked up, variant R29C E35D M47L V68M A71G L85M)
# T-lymphocyte activation …: VIHVTKEVKEVATLSCGHNVSVEELAQTCIYWQKDKKMVLTMMSGDLNIWPEYKNRTIFDITNNLSIMILGLRPSDEGTYECVVMKYEKDAFKREHLAEVTLSVKADFPTPSISDFEIPTSNIRRIICSTSGGFPEPHLSWLENGEELNAINTTVSQDPETELYAVSSKLDFNMTTNHSFMCLIKYGHLRVNQTFNWNTTKQEHFPDNLLPSWAITLISVNGIFVICCLTYCFAPRCRERRRNERLRRESVRPV
# modifications: Fc fusion
# B6: H18Y/E35D/M47V/V68M/L85M (protein, UniProt P33681 35-288, looked up, variant H18Y E35D M47V V68M L85M)
# T-lymphocyte activation …: VIHVTKEVKEVATLSCGYNVSVEELAQTRIYWQKDKKMVLTMMSGDVNIWPEYKNRTIFDITNNLSIMILALRPSDEGTYECVVMKYEKDAFKREHLAEVTLSVKADFPTPSISDFEIPTSNIRRIICSTSGGFPEPHLSWLENGEELNAINTTVSQDPETELYAVSSKLDFNMTTNHSFMCLIKYGHLRVNQTFNWNTTKQEHFPDNLLPSWAITLISVNGIFVICCLTYCFAPRCRERRRNERLRRESVRPV
# B7: D46V/M47I/A71G (protein)
# chain: VIHVTKEVKEVATLSCGHNVSVEELAQTRIYWQKEKKMVLTMMSGVINIWPEYKNRTIFDITNNLSIVILGLRPSDEGTYECVVLKYEKDAFKREHLAEVTLSVKAD
# What was measured:
# CD28 [1] = target: T1, CD28 (Homo sapiens, UniProt P10747); experiment: Flow binding to Jurkat/IL2 reporter cells (CD28); set-up: host or cells: Jurkat cells expressing an IL-2-luciferase reporter
# In short: (§1)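 Fusion proteins bound to CHO cells stably expressing CTLA4 or PD-L1, or to Jurkat/IL2 reporter cells with endogenous CD28, for 45 min on ice after blocking in PBS/1% BSA. Detection with PE anti-human Fc by flow cytometry; PE MFI per cell type and binding EC50 determined.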
# huCTLA4 = huCTLA4 (Homo sapiens, UniProt P16410); experiment: Flow binding to CHO cells stably expressing CTLA4; set-up: huCTLA4 and huPD-L1, full-length mammalian surface expression constructs were generated; expressed in transfected cells; host or cells: CHO cells, lentiviral transduction, sorted to >98% purity; details: for CTLA4 MFI at 33.3 nM: CHO cells stably expressing CTLA4
# Sequence of huCTLA4 (P16410 36-223): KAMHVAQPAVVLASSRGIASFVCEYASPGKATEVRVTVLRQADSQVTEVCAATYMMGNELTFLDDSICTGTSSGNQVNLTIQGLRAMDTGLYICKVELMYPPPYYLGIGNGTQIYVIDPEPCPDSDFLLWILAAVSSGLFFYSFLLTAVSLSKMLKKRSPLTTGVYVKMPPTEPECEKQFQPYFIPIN
# In short: as §1
# CD28 [2] = target: T1, CD28; experiment: Jurkat/IL2 + CHO/OKT3 +/- PD-L1 reporter assay: PD-L1-dependent CD28 costimulation; format: cell-based; set-up: host or cells: Jurkat cells expressing an IL-2-luciferase reporter; details: Jurkat/IL2 + CHO/OKT3/PD-L1, 5.0 nM; for Relative Luciferase Units (RLU), CD80 Conc 5.0 nM: Table E24
# In short: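 Jurkat reporter cells (100,000/well) preincubated 15 min at room temperature with test protein, then cocultured 5 h at 37 °C with CHO aAPCs bearing anti-CD3 scFv (OKT3) with or without PD-L1. Luciferase luminescence (RLU) read after lysis-substrate addition.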
# huPD-L1 = huPD-L1 (Homo sapiens, UniProt Q9NZQ7); experiment: Flow binding to CHO cells stably expressing PD-L1; set-up: huCTLA4 and huPD-L1, full-length mammalian surface expression constructs were generated; expressed in transfected cells; host or cells: CHO cells, lentiviral transduction, sorted to >98% purity; details: Table E10
# Sequence of huPD-L1 (Q9NZQ7 19-290): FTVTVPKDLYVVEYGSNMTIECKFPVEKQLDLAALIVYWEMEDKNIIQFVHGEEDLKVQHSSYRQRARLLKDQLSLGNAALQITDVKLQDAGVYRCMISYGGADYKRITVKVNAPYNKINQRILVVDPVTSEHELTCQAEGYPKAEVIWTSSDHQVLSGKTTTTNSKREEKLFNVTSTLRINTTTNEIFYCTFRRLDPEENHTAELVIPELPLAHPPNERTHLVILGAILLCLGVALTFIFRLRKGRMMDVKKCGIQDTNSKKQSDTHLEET
# In short: as §1
# [3] = Table E11, Jurkats (CD28), 33.3 nM
# [4] = Table E23, CD80 IgV-Fc (inert) at 33.3 nM, Jurkat (CD28)
# [5] = Table E23, CD80 IgV-Fc (inert) at 33.3 nM
# [6] = Table E16, consensus variants, Jurkats (CD28), 33.3 nM
# [7] = Table E16, consensus variants, 33.3 nM
# [8] = Table E10, 33.3 nM, relative to CD80 WT IgV-Fc
molecule,measurement,setting,value
B1,CD28 MFI at 33.3 nM,CD28 [1]; [3],201
same,CTLA4 MFI at 33.3 nM,"huCTLA4; Table E11, 33.3 nM",15997
same,"Relative Luciferase Units (RLU), CD80 Cone 5.0 nM",CD28 [2]; Table E13,1167 RLU
B2,CD28 MFI at 33.3 nM,CD28 [1]; [4],8189
same,CTLA4 MFI at 33.3 nM,huCTLA4; [5],19761
same,"Relative Luciferase Units (RLU), CD80 Conc 5.0 nM",CD28 [2],823 RLU
B3,CD28 MFI at 33.3 nM,CD28 [1]; [4],4801
same,CTLA4 MFI at 33.3 nM,huCTLA4; [5],23932
same,"Relative Luciferase Units (RLU), CD80 Conc 5.0 nM",CD28 [2],926 RLU
B4,CD28 MFI at 33.3 nM,CD28 [1]; [3],14.5
same,CD28 MFI at 33.3 nM,CD28 [1]; [6],2602
same,CTLA4 MFI at 33.3 nM,"huCTLA4; Table E11, 33.3 nM",20475
same,CTLA4 MFI at 33.3 nM,huCTLA4; [7],18022
same,"Relative Luciferase Units (RLU), CD80 Cone 5.0 nM",CD28 [2]; Table E13,225 RLU
B5,CD28 MFI at 33.3 nM,CD28 [1]; [3],16
same,CTLA4 MFI at 33.3 nM,"huCTLA4; Table E11, 33.3 nM",91
same,"Relative Luciferase Units (RLU), CD80 Cone 5.0 nM",CD28 [2]; Table E13,155 RLU
B6,CD28 MFI at 33.3 nM,CD28 [1]; [3],373
same,CD28 MFI at 33.3 nM,CD28 [1]; [6],1387
same,CTLA4 MFI at 33.3 nM,"huCTLA4; Table E11, 33.3 nM",18367
same,CTLA4 MFI at 33.3 nM,huCTLA4; [7],19306
same,"Relative Luciferase Units (RLU), CD80 Cone 5.0 nM",CD28 [2]; Table E13,1013 RLU
same,"Relative Luciferase Units (RLU), CD80 Cone 5.0 nM","CD28 [2]; Table E17, consensus variants",2575 RLU
B7,CD28 MFI at 33.3 nM,"CD28 [1]; Table E10, 33.3 nM, Jurkats (CD28)",1325
same,CD28 Fold change to WT CD80,CD28 [1]; [8],20.1
same,CTLA4 MFI at 33.3 nM,"huCTLA4; Table E10, 33.3 nM",28420
same,CTLA4 Fold change to WT CD80,huCTLA4; [8],14.8
same,PD-L1 MFI at 33.3 nM,"huPD-L1; 33.3 nM, CHO cells stably expressing PD-L1",7328
same,PD-L1 Fold change to WT CD80,"huPD-L1; 33.3 nM, relative to CD80 WT IgV-Fc",104.2
same,Ratio of PDL1:CD28,huPD-L1; binding to PD-L1 compared to binding to CD28,6
same,Fold Increase over WT CD80-IgV-Fe,CD28 [2]; Table E12,4.0
same,"Relative Luciferase Units (RLU), CD80 Cone 5.0 nM",CD28 [2]; Table E12,1601 RLU
